One may read the EC50 as the concentration that produces a half-maximal response. A lower EC50 goes with greater potency.

Here are results for 2 substances from US20190367586A1.

The assay has as its target RSV strain 18537 pre-fusion F (Ds-Cav1) (human respiratory syncytial virus subgroup B strain 18537) (UniProt P13843). In words: ELISA, F protein coated. A general note: ELISA stands for enzyme-linked immunosorbent assay.

RSV strain 18537 pre-fusion F (Ds-Cav1) (human respiratory syncytial virus subgroup B strain 18537), sequence (P13843 26-513): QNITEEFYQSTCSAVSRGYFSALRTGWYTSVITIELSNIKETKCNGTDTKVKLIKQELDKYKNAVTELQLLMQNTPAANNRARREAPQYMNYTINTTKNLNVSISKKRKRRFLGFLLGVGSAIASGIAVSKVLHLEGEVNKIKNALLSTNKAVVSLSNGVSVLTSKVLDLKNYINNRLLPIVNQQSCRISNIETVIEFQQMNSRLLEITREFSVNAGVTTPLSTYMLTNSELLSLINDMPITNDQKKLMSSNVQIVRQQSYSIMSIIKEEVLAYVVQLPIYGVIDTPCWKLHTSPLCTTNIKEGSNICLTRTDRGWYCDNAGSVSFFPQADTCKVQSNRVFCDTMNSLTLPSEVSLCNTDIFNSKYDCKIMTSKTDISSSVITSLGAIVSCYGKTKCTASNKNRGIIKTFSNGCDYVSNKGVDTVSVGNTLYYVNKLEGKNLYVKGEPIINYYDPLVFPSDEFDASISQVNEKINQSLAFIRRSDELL

Substance palivizumab (antibody) displayed an EC50 of 0.046 µg/mL.
Then motavizumab (antibody), with 0.022 µg/mL.
